Results reported in paper PMC8699488, “Side-by-Side Comparison of Five Chelators for ^89Zr-Labeling of Biomolecules: Investigation of Chemical/Radiochemical Properties and Complex Stability” (Cancers, 2021).

How the values were obtained:
[1] = Determination of logD(7.4), distribution between n-octanol and phosphate buffer pH 7.4; format: physicochemical; details: n-octanol / 0.05-M phosphate buffer pH 7.4; 89Zr-labeled peptide-chelator conjugate
Procedure: To a mixture of 1-octanol (800 µL) and 0.05-M phosphate buffer (775 µL, pH 7.4), a solution of the respective ^89Zr-labeled peptide conjugate (5µL of the before-obtained product solution, 0.8–1.2 MBq, 0.37–0.45 nmol) was added. The mixture was vigorously shaken for two minutes. Afterwards, the phases were separated by centrifugation. Two hundred microliters of each, the organic and the aqueous, phase were measured in a gamma counter. Each experiment was performed at least thrice, each in duplicate.
The logD(7.4) values of the ^89Zr-labeled peptide–chelator conjugates were determined by their distribution coefficient between n-octanol and phosphate buffer at pH 7.4.

[2] = EDTA-based 89Zr complex challenge experiments (relative kinetic inertness, radio-HPLC); format: physicochemical; details: 10,000 eq. of EDTA, pH 7.0, 25 °C, transchelation monitored for up to 54 h by radio-HPLC
Procedure: For each challenge experiment, three separate solutions of EDTA (14.61 mg, 50 µmol EDTA) in HEPES buffer (0.25 M, pH = 7.0, 380 µL) were prepared. The pH of the solutions was adjusted to pH 7.0 by the addition of a NaOH solution (30%, 12.5 µL), and Tracepur water (7.5 µL) was added to give a final volume of 400 µL of the EDTA solutions. To these solutions was added a solution of the respective ^89Zr-labeled peptide conjugate (5 nmol, 9.7–13.9 MBq), and the solutions were kept at 25 °C over the course of the experiment. At predefined time points, each solution was analyzed by analytical radio-HPLC for determination of the amount of ^89Zr transchelation. Each experiment was performed at least twice, each in triplicate.
In order to directly compare and assess the kinetic inertness of the formed ^89Zr complexes of [^89Zr]Zr-29–[^89Zr]Zr-32, we performed complex challenge experiments using EDTA as the challenging agent of [^89Zr]Zr-30–[^89Zr]Zr-32 in comparison to [^89Zr]Zr-29 serving as the gold standard. […]

[3] = test system: integrin αvβ3; parameters: method as in PMID 28074920; details: cited from earlier work

| Compound | logD [1] | kinetic inertness of the 89Zr complex against EDTA challenge [2] | affinity for integrin αvβ3 [3] |
| --- | --- | --- | --- |
| CC(=O)N(O)CCCCCNC(=O)CCC(=O)N(O)CCCCCNC(=O)CCC(=O)N(O)CCCCCNC(=O)CCC(=O)NCc1ccc(-c2nncc3c2CCC(OC(=O)NCCCC[C@@H]2NC(=O)[C@@H](Cc4ccccc4)NC(=O)[C@H](CC(=O)O)NC(=O)CNC(=O)[C@H](CCCNC(=N)N)NC2=O)CCC3)cc1 (some centres unmarked) [[^89Zr]Zr-29, metal not drawn] | -2.32 ± 0.21 | limited inertness and rapid transfer of the radiometal to EDTA | – |
| CC(=O)N(O)CCCCCNC(=O)CCC(=O)N(O)CCCCCNC(=O)CCC(=O)N(O)CCCCCNC(=O)CCC(=O)N(O)CCCCCNC(=O)CCC(=O)NCc1ccc(-c2nncc3c2CCC(OC(=O)NCCCC[C@@H]2NC(=O)[C@@H](Cc4ccccc4)NC(=O)[C@H](CC(=O)O)NC(=O)CNC(=O)[C@H](CCCNC(=N)N)NC2=O)CCC3)cc1 (some centres unmarked) [[^89Zr]Zr-31, metal not drawn] | -2.49 ± 0.03 | high resistance to the challenge | – |
| c(RGDfK) | – | – | high affinity |
